T1: human Kell glycoprotein, Kp^b form (KEL4) (human, UniProt P23276 1-732)
T1 construct: whole, on cells; On human Kp^b/Kp^b RBCs
T1 sequence (looked up): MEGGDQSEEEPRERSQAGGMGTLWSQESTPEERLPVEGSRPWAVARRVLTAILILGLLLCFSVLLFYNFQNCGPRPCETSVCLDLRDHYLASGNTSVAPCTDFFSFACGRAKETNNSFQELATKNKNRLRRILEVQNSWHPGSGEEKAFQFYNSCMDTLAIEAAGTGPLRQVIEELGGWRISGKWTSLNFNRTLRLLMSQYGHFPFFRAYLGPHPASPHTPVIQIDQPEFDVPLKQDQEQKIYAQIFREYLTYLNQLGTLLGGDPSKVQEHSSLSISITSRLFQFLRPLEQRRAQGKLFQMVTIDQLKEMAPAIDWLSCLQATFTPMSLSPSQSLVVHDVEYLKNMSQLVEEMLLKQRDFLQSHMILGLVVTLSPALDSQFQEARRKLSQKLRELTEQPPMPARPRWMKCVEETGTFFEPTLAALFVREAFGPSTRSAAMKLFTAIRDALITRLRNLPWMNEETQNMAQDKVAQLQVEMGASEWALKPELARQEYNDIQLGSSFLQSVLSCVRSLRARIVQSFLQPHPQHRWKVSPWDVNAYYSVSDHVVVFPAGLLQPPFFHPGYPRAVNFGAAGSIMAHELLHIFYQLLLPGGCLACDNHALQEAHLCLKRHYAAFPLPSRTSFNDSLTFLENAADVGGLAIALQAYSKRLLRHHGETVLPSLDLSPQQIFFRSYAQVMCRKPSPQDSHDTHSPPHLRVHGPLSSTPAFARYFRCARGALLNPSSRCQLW

T2: human Kell glycoprotein, k form (KEL2) (human, UniProt P23276 1-732)
T2 construct: whole, on cells; On human k/k or K-k+ RBCs; also called k antigen
T2 sequence (looked up): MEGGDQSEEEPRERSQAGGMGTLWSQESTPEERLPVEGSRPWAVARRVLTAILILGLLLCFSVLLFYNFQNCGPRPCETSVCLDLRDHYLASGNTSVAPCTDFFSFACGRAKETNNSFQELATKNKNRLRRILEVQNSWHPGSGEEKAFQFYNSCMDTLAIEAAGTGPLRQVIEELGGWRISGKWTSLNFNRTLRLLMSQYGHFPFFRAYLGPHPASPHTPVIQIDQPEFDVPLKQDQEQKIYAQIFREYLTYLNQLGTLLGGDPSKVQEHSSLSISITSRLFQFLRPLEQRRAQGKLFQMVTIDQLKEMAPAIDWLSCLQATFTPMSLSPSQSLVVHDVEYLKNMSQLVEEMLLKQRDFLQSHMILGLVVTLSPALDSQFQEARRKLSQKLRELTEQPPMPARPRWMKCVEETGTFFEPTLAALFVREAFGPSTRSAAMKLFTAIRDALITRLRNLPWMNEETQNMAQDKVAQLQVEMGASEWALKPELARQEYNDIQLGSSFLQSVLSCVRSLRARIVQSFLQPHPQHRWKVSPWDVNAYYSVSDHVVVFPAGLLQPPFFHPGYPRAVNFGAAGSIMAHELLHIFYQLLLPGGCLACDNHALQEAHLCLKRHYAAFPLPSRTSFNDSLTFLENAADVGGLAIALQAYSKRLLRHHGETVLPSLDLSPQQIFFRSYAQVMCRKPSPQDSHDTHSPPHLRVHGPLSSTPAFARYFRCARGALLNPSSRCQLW

T3: human Kell glycoprotein, K form (KEL1) (human, UniProt P23276 1-732)
T3 construct: whole, on cells; On human K/K or K+k+ RBCs and on RBCs of K transgenic mice; also called K antigen; K variant
T3 sequence (looked up): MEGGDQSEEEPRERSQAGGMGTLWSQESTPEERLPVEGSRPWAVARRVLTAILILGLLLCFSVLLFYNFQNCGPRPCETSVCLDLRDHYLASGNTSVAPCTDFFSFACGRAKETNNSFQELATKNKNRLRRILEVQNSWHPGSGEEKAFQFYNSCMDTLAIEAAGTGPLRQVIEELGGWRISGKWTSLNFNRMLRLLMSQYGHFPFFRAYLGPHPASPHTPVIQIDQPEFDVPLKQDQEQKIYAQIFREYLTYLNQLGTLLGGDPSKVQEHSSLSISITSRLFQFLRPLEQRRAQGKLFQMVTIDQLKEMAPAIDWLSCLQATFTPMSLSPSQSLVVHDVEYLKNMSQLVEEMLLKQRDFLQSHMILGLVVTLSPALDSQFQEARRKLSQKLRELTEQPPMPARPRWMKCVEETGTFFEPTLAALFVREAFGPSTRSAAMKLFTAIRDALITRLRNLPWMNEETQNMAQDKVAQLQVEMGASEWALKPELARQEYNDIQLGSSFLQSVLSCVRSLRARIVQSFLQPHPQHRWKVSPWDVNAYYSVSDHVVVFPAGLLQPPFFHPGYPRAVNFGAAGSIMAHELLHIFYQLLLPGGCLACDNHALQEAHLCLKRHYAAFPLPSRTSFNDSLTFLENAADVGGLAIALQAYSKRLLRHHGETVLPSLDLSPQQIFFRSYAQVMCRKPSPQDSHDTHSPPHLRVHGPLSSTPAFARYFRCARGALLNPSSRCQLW

T4: human Kell glycoprotein, Js^b form (KEL7) (human, UniProt P23276 1-732)
T4 construct: whole, on cells; On human Js^b/Js^b RBCs
T4 sequence (looked up): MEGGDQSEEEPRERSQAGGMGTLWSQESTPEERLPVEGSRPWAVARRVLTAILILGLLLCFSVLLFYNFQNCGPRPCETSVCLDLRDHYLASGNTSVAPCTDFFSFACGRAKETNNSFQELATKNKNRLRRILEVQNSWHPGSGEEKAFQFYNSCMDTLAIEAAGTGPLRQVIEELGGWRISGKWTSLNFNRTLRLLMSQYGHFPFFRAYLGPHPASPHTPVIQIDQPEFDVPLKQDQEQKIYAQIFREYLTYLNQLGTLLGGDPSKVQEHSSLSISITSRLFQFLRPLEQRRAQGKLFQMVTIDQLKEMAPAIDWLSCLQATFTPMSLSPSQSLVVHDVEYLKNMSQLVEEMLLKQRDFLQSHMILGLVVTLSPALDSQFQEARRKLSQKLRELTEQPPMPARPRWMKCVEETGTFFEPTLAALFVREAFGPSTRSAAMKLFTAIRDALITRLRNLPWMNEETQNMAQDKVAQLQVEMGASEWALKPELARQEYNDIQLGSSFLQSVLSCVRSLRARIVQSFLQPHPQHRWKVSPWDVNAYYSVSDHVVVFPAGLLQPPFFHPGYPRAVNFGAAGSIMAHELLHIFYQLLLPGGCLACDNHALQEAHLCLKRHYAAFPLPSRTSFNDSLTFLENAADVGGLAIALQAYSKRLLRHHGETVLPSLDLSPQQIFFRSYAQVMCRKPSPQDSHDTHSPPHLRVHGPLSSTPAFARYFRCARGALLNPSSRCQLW


Columns and labels:
[1] = molecular target: T1, human Kell glycoprotein, Kp^b form …; test: flow cytometry, indirect immunofluorescence on human RBCs
Description: (§1) The specificities of the antibodies were determined to be: PUMA ½ (KEL1 or K), PUMA 3 (a common Kell epitope, PUMA 4 (KEL4 or Kp^b). Flow cytometry was utilized to test antibody specificity by indirect immunofluorescence, using the monocolonal antibodies as the primary reagent and a goat-anti-mouse antibody (conjugated to allophycocyanin) as a secondary antibody. Different target cells expressing different Kell variants were used to determine specificity. Targets included RBCs that phenotyped as homozygous for the 3 main antithetical antigens in the Kell system, K/K, k/k, Kp^{b/}Kp^b, Kp^{a/}Kp^a. Js^{b/}J^b, Js^{a/}Js^a. Differential binding to such tarets tests specificity. In the case of PUMA ½, binding was only observed when K was present but not on k/k RBCs. In the case of PUMA 3, binding was observed on all RBCs regardless of phenotype for K/k, Kp^{a/}Kp^{b,} or Js^{a/}Js^b, thus indicating a common epitope outside these systems. However, PUMA 3 bound to only KELL glycoprotein transgenic murine RBCs and not wild-type murine RBCs; thus, the epitope recognized by PUMA 3 is on the KELL molecule, but not K/k, Kp^{a/}Kp^b, or Js^{a/}Js^b. For PUMA 4, binding was only observed when Kp^b was present but not on Kp^{a/}Kp^a RBCs.

[2] = molecular target: T2, human Kell glycoprotein, k form (KEL2); test: flow cytometry, indirect immunofluorescence on k/k human RBCs
Description: as §1

[3] = molecular target: T3, human Kell glycoprotein, K form (KEL1); test: flow cytometry on K transgenic mouse RBCs
[4] = molecular target: T3, human Kell glycoprotein, K form (KEL1); test: flow cytometry, indirect immunofluorescence on K/K human RBCs
Description: as §1

[5] = molecular target: T4, human Kell glycoprotein, Js^b form …; test: flow cytometry, indirect immunofluorescence on Js^b/Js^b human RBCs
Description: as §1

[6] = molecular target: T1, human Kell glycoprotein, Kp^b form …; test: flow cytometry, indirect immunofluorescence on Kp^b/Kp^b human RBCs
Description: as §1

Row | binding result [1] | binding result [2] | binding result [3] | binding result [4] | binding result [5] | binding result [6] | Binder
1 | binds | – | – | – | – | – | PUMA 4 monoclonal antibody (antibody, V domains shown, Mouse monoclonal from hybridoma) VH: EVKLEESGGGLVQPGGSMKLSCVASGFTFSNYWMNWVRQPPEKGLEWVAEIRLNSNNYATHYAESVKGKFTISRDDSKSSVYLQMNDLRAEDTGIYYCTRNWDFAWFDSWGQGTLVTVSA VL: DIVMTQSHKFMSTSVGDRVSITCKASQDVSTVVAWYQQKPGQSPKLLIYWASTRHTGVPDRFTGSGSGTDYTLTISSVQAEDLALYYCQQHYTTPFTFGSGTKLEIK
2 | – | no binding | binds | – | – | – | PUMA 1 monoclonal anti-K antibody (antibody, mouse IgG2a, V domains shown, also called PUMA 2; PUMA ½) VH: EVQLQQSGPELVKPGASVKMSCKASGYTFTDYYMKWVKQSHGKSLEWIGDLNPNNGDTFYNQKFKGKATLTVDKSSSTAYIQLNSLTSEDSAVYYCAREAGSSFGSSCNYWGQGTTLTVS VL: SVVMTQTPKFLLVSAGDRVTITCKASQTVSKDVAWYQQQPGQSPKLLIYYASNRYTGVPDRFTGSGYGTDFTFTISTVQAEDLAVYFCQQDYSSPYTFGGGTKLEIK
3 | – | binds | – | binds | binds | binds | PUMA 3 monoclonal antibody (antibody, V domains shown, Mouse monoclonal from hybridoma) VH: QVQLKESGPGLLAPSQSLSITCTVSGFSLTSYGVYWVRQPPGKGLEWLGIIWGDGSTNYQSVLRSRLSITKDDSKSQVFLKLNSLQTDDTATYYCAKRGDYDVAYWGQGTLVTVSA VL: DIVLTQSPASLAVSLGQRAIISCKASQTVSEVGTSLMHWYQQRPGQQPKLLIYRTSNLEAGVPTRFSGSGSRTDFTLNIHPVEEDDAATYYCQQSREFPWTFGGGTRLEIK
